± gives the standard deviation of the averaged measurements.
Tests used:
[1] = system: VchCAST RNA-guided transposition machinery (E. coli BL21(DE3) host, lacZ target); assay: relative integration efficiency (T-LR orientation) vs wild-type transposon end (log2 (normalized fold change)); transposon end mutated: right end (5 bp flank + 75 bp right end); higher = more efficient transposition
Procedure, shortened: (§1)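 Co-transformation of E. coli BL21(DE3) combined a pUC57 mini-transposon donor, holding barcoded pools of 1549 left-end or 1849 right-end variants, with a T7-driven plasmid encoding a CRISPR array, tniQ-cas8-cas7-cas6 and tnsA-tnsB-tnsC. After plating with 0.1 mM IPTG at 37°C for 18 h, input plasmids and genomic integration junctions were PCR-amplified and Illumina-sequenced across two biological output replicates, with four reference barcodes. Relative integration efficiency is the normalised, log-transformed output/input barcode fold change.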

[2] = system: VchCAST RNA-guided transposition machinery (E. coli BL21(DE3) host, lacZ target); assay: relative integration efficiency (T-RL orientation) vs wild-type transposon end (log2 (normalized fold change)); transposon end mutated: right end (5 bp flank + 75 bp right end); higher = more efficient transposition
Procedure, shortened: as §1

In the case of “ACATTTGTTGATACAACCATAAAATCTATATTACACCCATAAATTGATAATTATCACACCCATAAATTGATATTGCCTCTGATCATAGTCAGACCAACATTGCTACGACCCGTATTCGCACCGACAC”, the “relative integration efficiency (log2)” value [1] is reported as -1.85 ± 0.057 and the “relative integration efficiency (log2)” value [2] is reported as -1.55 ± 0.21.

“ACATTTGTTGATACAACCATAAAATCTTAATTACACCCATAAATTGATAATTATCACACCCATAAATTGATATTGCCTCTGATCATAGTCAGACCAACATTGCTACGACCCGTATTCGCACCGACAC” was tested, and the “relative integration efficiency (log2)” value [1] was -1.09 ± 0.22 and the “relative integration efficiency (log2)” value [2] was -1.973 ± 0.011.

“ACATTTGTTGATACAACCATAAAATGAAAATTACACCCATAAATTGAAAATTATCACACCCATAAATTGAAATTGCCTCTGATCATAGTCAGACCAACATTGCTACGACCCGTATTCGCACCGACAC” was tested, and the “relative integration efficiency (log2)” value [1] was 0.0682 ± 0.25 and the “relative integration efficiency (log2)” value [2] was -1.13 ± 0.26.

For “ACATTTGTTGATACAACCATAAAATGAATATTACACCCATAAATTGATAATTATCACACCCATAAATTGATATTGCCTCTGATCATAGTCAGACCAACATTGCTACGACCCGTATTCGCACCGACAC”, the “relative integration efficiency (log2)” value [1] was -0.52 ± 0.4 and the “relative integration efficiency (log2)” value [2] was -0.772 ± 0.072.

In the case of “ACATTTGTTGATACAACCATAAAATGAATTAATCACCCATAAATTGAATTAATTCACACCCATAAATTGAATAACGCTCTGATCATAGTCAGACCAACATTGCTACGACCCGTATTCGCACCGACAC”, the “relative integration efficiency (log2)” value [1] is reported as -1.25 ± 0.054 and the “relative integration efficiency (log2)” value [2] is reported as -2.34 ± 0.14.

With “ACATTTGTTGATACAACCATAAAATGAATTATACACCCATAAATTGATAATTATCACACCCATAAATTGATATTGCCTCTGATCATAGTCAGACCAACATTGCTACGACCCGTATTCGCACCGACAC” the “relative integration efficiency (log2)” value [1] was -0.0536 ± 0.3 and the “relative integration efficiency (log2)” value [2] was -0.7 ± 0.18.

For “ACATTTGTTGATACAACCATAAAATGAGAATTACACCCATAAATTGAGAATTATCACACCCATAAATTGAGATTGCCTCTGATCATAGTCAGACCAACATTGCTACGACCCGTATTCGCACCGACAC”, the “relative integration efficiency (log2)” value [1] was -0.085 ± 0.14 and the “relative integration efficiency (log2)” value [2] was -1.04 ± 0.13.

In the case of “ACATTTGTTGATACAACCATAAAATGAGCATTACACCCATAAATTGATAATTATCACACCCATAAATTGATATTGCCTCTGATCATAGTCAGACCAACATTGCTACGACCCGTATTCGCACCGACAC”, the “relative integration efficiency (log2)” value [1] is reported as -0.621 ± 0.017 and the “relative integration efficiency (log2)” value [2] is reported as -0.394 ± 0.049.

In the case of “ACATTTGTTGATACAACCATAAAATGAGCCGGCACAAACGCCCGGTCGCCGGCGACACAAACGCCCGGTCGCGGTAAGAGGATCATAGTCAGACCAACATTGCTACGACCCGTATTCGCACCGACAC”, the “relative integration efficiency (log2)” value [1] is reported as -0.24 ± 0.25 and the “relative integration efficiency (log2)” value [2] is reported as -3.42 ± 0.22.

“ACATTTGTTGATACAACCATAAAATGAGCCGGCCACCCATAAATTGAGCCGGCTCACACCCATAAATTGAGCGGTACTCTGATCATAGTCAGACCAACATTGCTACGACCCGTATTCGCACCGACAC” was tested, and the “relative integration efficiency (log2)” value [1] was -1.65 ± 0.23 and the “relative integration efficiency (log2)” value [2] was -4.23 ± 0.084.

With “ACATTTGTTGATACAACCATAAAATGAGCCGTACACCCATAAATTGATAATTATCACACCCATAAATTGATATTGCCTCTGATCATAGTCAGACCAACATTGCTACGACCCGTATTCGCACCGACAC” the “relative integration efficiency (log2)” value [1] was -0.26 ± 0.5 and the “relative integration efficiency (log2)” value [2] was -0.359 ± 0.21.

For “ACATTTGTTGATACAACCATAAAATGATAAAAACACCCATAAATTGATAATTATCACACCCATAAATTGATATTGCCTCTGATCATAGTCAGACCAACATTGCTACGACCCGTATTCGCACCGACAC”, the “relative integration efficiency (log2)” value [1] was -0.253 ± 0.4 and the “relative integration efficiency (log2)” value [2] was -0.347 ± 0.089.

In the case of “ACATTTGTTGATACAACCATAAAATGATAAAATCACCCATAAATTGATAAAATTCACACCCATAAATTGATATACGCTCTGATCATAGTCAGACCAACATTGCTACGACCCGTATTCGCACCGACAC”, the “relative integration efficiency (log2)” value [1] is reported as -0.368 ± 0.21 and the “relative integration efficiency (log2)” value [2] is reported as -1.05 ± 0.087.

“ACATTTGTTGATACAACCATAAAATGATAAAATGACCCATAAATTGATAATTATCACACCCATAAATTGATATTGCCTCTGATCATAGTCAGACCAACATTGCTACGACCCGTATTCGCACCGACAC” was tested, and the “relative integration efficiency (log2)” value [1] was 0.143 ± 0.81 and the “relative integration efficiency (log2)” value [2] was -0.49 ± 0.13.

For “ACATTTGTTGATACAACCATAAAATGATAAATACACCCATAAATTGATAAATATCACACCCATAAATTGATATAGCCTCTGATCATAGTCAGACCAACATTGCTACGACCCGTATTCGCACCGACAC”, the “relative integration efficiency (log2)” value [1] was 0.037 ± 0.84 and the “relative integration efficiency (log2)” value [2] was -0.443 ± 0.15.

“ACATTTGTTGATACAACCATAAAATGATAAATACACCCATAAATTGATAATAATGACACCGAATTTAACTATAACGCTCTGATCATAGTCAGACCAACATTGCTACGACCCGTATTCGCACCGACAC” was tested, and the “relative integration efficiency (log2)” value [1] was 2.26 ± 0.23 and the “relative integration efficiency (log2)” value [2] was -1.36 ± 0.43.

With “ACATTTGTTGATACAACCATAAAATGATAAATACACCCATAAATTGATAATGATGACACCGAATTTAACTATAACGCTCTGATCATAGTCAGACCAACATTGCTACGACCCGTATTCGCACCGACAC” the “relative integration efficiency (log2)” value [1] was 2.71 ± 0.18 and the “relative integration efficiency (log2)” value [2] was -0.862 ± 0.42.

“ACATTTGTTGATACAACCATAAAATGATAAATACACCCATAAATTGATAATTGTGACACCGAATTTAACTATAACGCTCTGATCATAGTCAGACCAACATTGCTACGACCCGTATTCGCACCGACAC” was tested, and the “relative integration efficiency (log2)” value [1] was 2.56 ± 0.14 and the “relative integration efficiency (log2)” value [2] was -0.896 ± 0.3.

With “ACATTTGTTGATACAACCATAAAATGATAACACCCATAAATTGATAATTATCACACCCATAAATTGATATTGCCTCTGATCATAGTCAGACCAACATTGCTACGACCCGTATTCGCACCGACACTGA” the “relative integration efficiency (log2)” value [1] was -1.25 ± 0.2 and the “relative integration efficiency (log2)” value [2] was -3.99 ± 0.2.

“ACATTTGTTGATACAACCATAAAATGATAAGGACACCCATAAATTGATAATTATCACACCCATAAATTGATATTGCCTCTGATCATAGTCAGACCAACATTGCTACGACCCGTATTCGCACCGACAC” was tested, and the “relative integration efficiency (log2)” value [1] was -0.358 ± 0.15 and the “relative integration efficiency (log2)” value [2] was -0.956 ± 0.034.

In the case of “ACATTTGTTGATACAACCATAAAATGATAAGGCAACCCATAAATTGATAATTATCACACCCATAAATTGATATTGCCTCTGATCATAGTCAGACCAACATTGCTACGACCCGTATTCGCACCGACAC”, the “relative integration efficiency (log2)” value [1] is reported as -0.414 ± 0.36 and the “relative integration efficiency (log2)” value [2] is reported as -0.5904 ± 0.00039.

With “ACATTTGTTGATACAACCATAAAATGATAAGGCACAAACGCCCGGTCGCCGGCGACACAAACGCCCGGTCGCGGTAAGAGGATCATAGTCAGACCAACATTGCTACGACCCGTATTCGCACCGACAC” the “relative integration efficiency (log2)” value [1] was 1.225 ± 0.01 and the “relative integration efficiency (log2)” value [2] was -2.28 ± 0.27.

In the case of “ACATTTGTTGATACAACCATAAAATGATAAGGCCACCCATAAATTGATAAGGCTCACACCCATAAATTGATATGTACTCTGATCATAGTCAGACCAACATTGCTACGACCCGTATTCGCACCGACAC”, the “relative integration efficiency (log2)” value [1] is reported as -0.158 ± 0.46 and the “relative integration efficiency (log2)” value [2] is reported as -1.42 ± 0.28.

“ACATTTGTTGATACAACCATAAAATGATAAGTACACCCATAAATTGATAAGTATCACACCCATAAATTGATATGGCCTCTGATCATAGTCAGACCAACATTGCTACGACCCGTATTCGCACCGACAC” was tested, and the “relative integration efficiency (log2)” value [1] was 0.407 ± 0.12 and the “relative integration efficiency (log2)” value [2] was -0.35 ± 0.029.

With “ACATTTGTTGATACAACCATAAAATGATAATAACACCCATAAAATGATAATTATCACACCCAATTTAACTATAACGCTCTGATCATAGTCAGACCAACATTGCTACGACCCGTATTCGCACCGACAC” the “relative integration efficiency (log2)” value [1] was 3.211 ± 0.011 and the “relative integration efficiency (log2)” value [2] was -0.0962 ± 0.22.

For “ACATTTGTTGATACAACCATAAAATGATAATAACACCCATAAATTGATAATAATCACACCCATAAATTGATATTCCCTCTGATCATAGTCAGACCAACATTGCTACGACCCGTATTCGCACCGACAC”, the “relative integration efficiency (log2)” value [1] was -0.098 ± 0.26 and the “relative integration efficiency (log2)” value [2] was -0.389 ± 0.15.

With “ACATTTGTTGATACAACCATAAAATGATAATATCACCCATAAATTGATAATATTCACACCCATAAATTGATATTCGCTCTGATCATAGTCAGACCAACATTGCTACGACCCGTATTCGCACCGACAC” the “relative integration efficiency (log2)” value [1] was -0.639 ± 0.0008 and the “relative integration efficiency (log2)” value [2] was -0.471 ± 0.0068.

“ACATTTGTTGATACAACCATAAAATGATAATATCACCCATAAATTGATAATTATCACACCCATAAATTGATATTGCCTCTGATCATAGTCAGACCAACATTGCTACGACCCGTATTCGCACCGACAC” was tested, and the “relative integration efficiency (log2)” value [1] was -0.505 ± 0.091 and the “relative integration efficiency (log2)” value [2] was -0.188 ± 0.066.

“ACATTTGTTGATACAACCATAAAATGATAATATGTCCCATAAATTGATAATTATCACACCCATAAATTGATATTGCCTCTGATCATAGTCAGACCAACATTGCTACGACCCGTATTCGCACCGACAC” was tested, and the “relative integration efficiency (log2)” value [1] was -0.96 ± 0.27 and the “relative integration efficiency (log2)” value [2] was -1.29 ± 0.17.

For “ACATTTGTTGATACAACCATAAAATGATAATCACCCATAAATTGATAATTATCACACCCATAAATTGATATTGCCTCTGATCATAGTCAGACCAACATTGCTACGACCCGTATTCGCACCGACACTG”, the “relative integration efficiency (log2)” value [1] was -1.91 ± 0.79 and the “relative integration efficiency (log2)” value [2] was -4.33 ± 0.1.

“ACATTTGTTGATACAACCATAAAATGATAATGACACCCATAAATTGATAATGATCACACCCATAAATTGATATTTCCTCTGATCATAGTCAGACCAACATTGCTACGACCCGTATTCGCACCGACAC” was tested, and the “relative integration efficiency (log2)” value [1] was 0.195 ± 0.093 and the “relative integration efficiency (log2)” value [2] was -0.238 ± 0.065.

In the case of “ACATTTGTTGATACAACCATAAAATGATAATGCACAAACGCCCGGTCGCCGGCGACACAAACGCCCGGTCGCGGTAAGAGGATCATAGTCAGACCAACATTGCTACGACCCGTATTCGCACCGACAC”, the “relative integration efficiency (log2)” value [1] is reported as 1.04 ± 0.18 and the “relative integration efficiency (log2)” value [2] is reported as -2.15 ± 0.043.
